Results: publication PMC7498065 (PLoS Biology, 2020)

B1: PGT121-K136 fusion protein (Fab)
VH: QMQLQESGPGLVKPSETLSLTCSVSGASISDSYWSWIRRSPGKGLEWIGYVHKSGDTNYSPSLKSRVNLSLDTSKNQVSLSLVAATAADSGKYYCARTLHGRRIYGSENLYFQGTCPDNYREVDGCDPYDCCLTTWCTNSYCTRYIENLYFQGSEWFTYFYMDVWGNGTQVTVSS
VL: QSVLTQPPDISVAPGETARISCGEKSLGSRAVQWYQHRAGQAPSLIIYNNQDRPSGIPERFSGSPDSPFGTTATLTITSVEAGDEADYYCHIWDSRVPTKWVFGGGTTLTVL
notes: light chain of the human Fab PGT121, as the light chain of m4; Purified on a nickel column, so a His tag is surmised; also called PGT121 Fab-knob domain fusion protein (K136); source: Expi293F, transient co-transfection of heavy and light chain, purified from supernatant (Hi-Trap Nickel excel)
B2: PGT121-K149 fusion protein (Fab)
VH: QMQLQESGPGLVKPSETLSLTCSVSGASISDSYWSWIRRSPGKGLEWIGYVHKSGDTNYSPSLKSRVNLSLDTSKNQVSLSLVAATAADSGKYYCARTLHGRRIYGSENLYFQGSCPDGFSYRSWDDFCCPMVGRCLAPRNGSENLYFQGSEWFTYFYMDVWGNGTQVTVSS
VL: B1 VL
notes: light chain of the human Fab PGT121, as the light chain of m4; Purified on a nickel column, so a His tag is surmised; also called K149-PGT121 construct; source: Expi293F, transient co-transfection of heavy and light chain, purified from supernatant (Hi-Trap Nickel excel)

Legend:
Settings in all cases: both partners purified
Complement component C5 [1] = molecular target: T1, Complement component C5 (Homo sapiens, UniProt P01031); assay: FRET or BRET; steady state FRET; 1 nM terbium-labelled C5; titration of AlexaFluor 647-labelled PGT121 knob fusion protein in HBS-EP, with and without 1 μM unlabelled C5; 24 hours; apparent KD (KD app), geomean of 3 experiments
T1 construct: Complement component C5, human, beta chain of the processed serum protein; Complement component C5, human, alpha chain of the processed serum protein; In the FRET assays C5 carried an amine-reactive terbium chelate (dye to protein 4:1); in SPR it was amine-coupled to a CM5 chip; The C5 used for immunisation was bought from CompTech; also called human C5; C5-Tb
T1 sequence (P01031 whole entry, looked up, the tested form may be a part): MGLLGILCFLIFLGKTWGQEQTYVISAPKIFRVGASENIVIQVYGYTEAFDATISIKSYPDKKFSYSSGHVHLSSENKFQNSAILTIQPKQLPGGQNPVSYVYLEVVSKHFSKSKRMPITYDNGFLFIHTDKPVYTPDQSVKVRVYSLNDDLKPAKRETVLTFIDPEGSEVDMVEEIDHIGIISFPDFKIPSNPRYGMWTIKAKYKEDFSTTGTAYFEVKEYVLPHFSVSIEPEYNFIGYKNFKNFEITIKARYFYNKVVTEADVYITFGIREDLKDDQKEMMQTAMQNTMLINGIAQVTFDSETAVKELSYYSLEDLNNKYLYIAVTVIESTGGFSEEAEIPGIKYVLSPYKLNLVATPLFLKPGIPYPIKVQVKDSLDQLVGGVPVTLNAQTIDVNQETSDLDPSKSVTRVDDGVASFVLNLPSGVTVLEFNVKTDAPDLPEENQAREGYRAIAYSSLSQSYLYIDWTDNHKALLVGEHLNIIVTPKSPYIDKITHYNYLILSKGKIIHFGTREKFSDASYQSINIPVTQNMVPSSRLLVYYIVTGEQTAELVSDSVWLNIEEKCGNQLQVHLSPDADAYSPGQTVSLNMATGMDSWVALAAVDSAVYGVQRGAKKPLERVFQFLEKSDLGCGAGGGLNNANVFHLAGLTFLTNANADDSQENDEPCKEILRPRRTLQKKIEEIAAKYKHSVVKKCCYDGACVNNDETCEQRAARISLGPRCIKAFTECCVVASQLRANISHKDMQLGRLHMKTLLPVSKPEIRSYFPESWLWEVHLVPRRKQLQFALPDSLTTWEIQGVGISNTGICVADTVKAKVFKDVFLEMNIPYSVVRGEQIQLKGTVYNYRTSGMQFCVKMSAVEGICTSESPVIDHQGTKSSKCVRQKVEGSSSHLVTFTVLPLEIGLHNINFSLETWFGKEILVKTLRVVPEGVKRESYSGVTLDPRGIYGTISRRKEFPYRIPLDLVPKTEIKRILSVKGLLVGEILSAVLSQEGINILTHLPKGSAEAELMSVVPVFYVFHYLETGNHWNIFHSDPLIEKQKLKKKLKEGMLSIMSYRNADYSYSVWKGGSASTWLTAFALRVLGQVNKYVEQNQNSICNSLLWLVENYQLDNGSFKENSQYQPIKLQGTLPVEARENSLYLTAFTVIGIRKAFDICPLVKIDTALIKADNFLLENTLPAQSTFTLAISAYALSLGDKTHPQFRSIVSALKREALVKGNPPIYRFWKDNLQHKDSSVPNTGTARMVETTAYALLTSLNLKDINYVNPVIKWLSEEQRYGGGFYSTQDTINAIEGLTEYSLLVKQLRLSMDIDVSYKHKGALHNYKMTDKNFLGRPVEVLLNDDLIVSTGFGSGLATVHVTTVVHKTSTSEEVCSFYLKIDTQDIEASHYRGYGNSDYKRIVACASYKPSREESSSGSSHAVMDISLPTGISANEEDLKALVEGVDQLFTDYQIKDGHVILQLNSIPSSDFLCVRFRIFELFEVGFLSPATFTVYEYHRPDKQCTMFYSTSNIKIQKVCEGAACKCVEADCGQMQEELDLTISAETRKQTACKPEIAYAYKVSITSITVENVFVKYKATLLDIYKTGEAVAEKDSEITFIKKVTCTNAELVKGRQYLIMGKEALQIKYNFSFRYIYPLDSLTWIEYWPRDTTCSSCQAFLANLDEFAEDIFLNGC

[2] = molecular target: T2, human complement component C3 (Homo sapiens, UniProt P01024); assay: SPR; Biacore single-cycle kinetics counter screen; C3 amine-coupled to CM5 (minimal immobilisation, 40-55 RU); PGT121 knob fusion proteins as analytes
T2 construct: Complement component C3, human, beta chain of the processed serum protein; Complement component C3, human, alpha chain of the processed serum protein; source: bought: CompTech
T2 sequence (P01024 whole entry, looked up, the tested form may be a part): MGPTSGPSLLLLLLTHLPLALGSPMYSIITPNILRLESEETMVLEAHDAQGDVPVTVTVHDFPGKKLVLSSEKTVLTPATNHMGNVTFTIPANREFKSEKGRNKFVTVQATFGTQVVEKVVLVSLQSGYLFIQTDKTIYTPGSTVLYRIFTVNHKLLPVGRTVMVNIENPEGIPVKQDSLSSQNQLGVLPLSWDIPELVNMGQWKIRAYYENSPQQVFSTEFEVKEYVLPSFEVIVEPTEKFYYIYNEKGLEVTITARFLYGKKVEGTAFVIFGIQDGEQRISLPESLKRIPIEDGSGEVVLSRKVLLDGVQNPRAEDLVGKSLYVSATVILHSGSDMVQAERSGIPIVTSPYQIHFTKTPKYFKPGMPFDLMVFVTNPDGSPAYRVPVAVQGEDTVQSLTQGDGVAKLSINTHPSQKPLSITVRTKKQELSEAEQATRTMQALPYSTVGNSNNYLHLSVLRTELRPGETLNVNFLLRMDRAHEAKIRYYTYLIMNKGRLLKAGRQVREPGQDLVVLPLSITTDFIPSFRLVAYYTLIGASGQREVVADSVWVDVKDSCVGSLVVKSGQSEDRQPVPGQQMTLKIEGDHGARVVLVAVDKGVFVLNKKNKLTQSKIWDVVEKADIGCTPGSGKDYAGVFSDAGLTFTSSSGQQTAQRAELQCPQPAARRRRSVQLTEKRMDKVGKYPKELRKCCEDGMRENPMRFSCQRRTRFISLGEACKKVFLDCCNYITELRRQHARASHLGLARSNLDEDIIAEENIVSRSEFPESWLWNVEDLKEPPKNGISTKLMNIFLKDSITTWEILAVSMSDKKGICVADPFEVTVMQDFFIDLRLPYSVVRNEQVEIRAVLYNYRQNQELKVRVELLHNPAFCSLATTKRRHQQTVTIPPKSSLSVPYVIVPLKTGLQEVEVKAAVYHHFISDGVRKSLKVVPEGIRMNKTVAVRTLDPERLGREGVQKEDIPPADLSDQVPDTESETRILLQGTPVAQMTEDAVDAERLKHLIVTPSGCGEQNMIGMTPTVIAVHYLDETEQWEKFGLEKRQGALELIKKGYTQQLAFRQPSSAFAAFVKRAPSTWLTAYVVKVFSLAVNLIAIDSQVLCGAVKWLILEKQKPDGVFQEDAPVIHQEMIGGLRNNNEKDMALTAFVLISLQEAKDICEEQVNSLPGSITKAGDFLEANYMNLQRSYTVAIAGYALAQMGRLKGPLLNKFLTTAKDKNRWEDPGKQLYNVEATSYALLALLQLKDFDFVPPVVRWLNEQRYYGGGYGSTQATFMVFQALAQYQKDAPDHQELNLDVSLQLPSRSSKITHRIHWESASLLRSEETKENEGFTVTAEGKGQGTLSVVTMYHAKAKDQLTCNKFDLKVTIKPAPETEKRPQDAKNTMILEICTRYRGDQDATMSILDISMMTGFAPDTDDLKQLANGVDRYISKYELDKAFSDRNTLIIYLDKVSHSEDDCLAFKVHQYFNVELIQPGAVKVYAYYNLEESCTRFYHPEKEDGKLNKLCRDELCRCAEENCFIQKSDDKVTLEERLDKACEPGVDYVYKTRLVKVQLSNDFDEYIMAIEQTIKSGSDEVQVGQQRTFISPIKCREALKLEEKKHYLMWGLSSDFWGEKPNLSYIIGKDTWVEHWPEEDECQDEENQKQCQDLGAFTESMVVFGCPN

Complement component C5 [3] = molecular target: T1, Complement component C5; assay: SPR; Biacore 8K single-cycle kinetics; C5 amine-coupled to CM5 (minimal immobilisation, 100-160 RU; 50-85 RU for PGT121-K149); PGT121 knob fusion proteins as analytes, 1 μM to 1.37 nM in HBS-EP; 40 μL/min (100 μL/min for K149); dissociation 10,000 s; 1:1 model; mean of 3 experiments

Binder	Kd (Complement component C5 [1]) [nM]	binding result [2]	koff (Complement component C5 [3]) [s⁻¹]
B1	40	no binding (tested: 1 μM)	< 1e-05
B2	66	no binding (tested: 1 μM)	–
